Source: PMC5777258, “Phosphorylation of human enhancer filamentation 1 (HEF1) stimulates interaction with Polo-like kinase 1 leading to HEF1 localization to focal adhesions” (The Journal of Biological Chemistry, 2017)
Square brackets hold non-standard residues; d marks the D form. Ends that are not written are not given here. pT = C[C@@H](OP(=O)(O)O)[C@H](N)C(=O)O

Key:
HEF1, endogenous = HEF1, endogenous (UniProt Q14511); assay: GST pull-down (bead-conjugated GST-PBD) with anti-HEF1 immunoblot, bands quantified with ImageJ; settings: HeLa total cell lysate, parent: 1.0
HEF1, endogenous, sequence (Q14511 whole entry, the tested form may be a part): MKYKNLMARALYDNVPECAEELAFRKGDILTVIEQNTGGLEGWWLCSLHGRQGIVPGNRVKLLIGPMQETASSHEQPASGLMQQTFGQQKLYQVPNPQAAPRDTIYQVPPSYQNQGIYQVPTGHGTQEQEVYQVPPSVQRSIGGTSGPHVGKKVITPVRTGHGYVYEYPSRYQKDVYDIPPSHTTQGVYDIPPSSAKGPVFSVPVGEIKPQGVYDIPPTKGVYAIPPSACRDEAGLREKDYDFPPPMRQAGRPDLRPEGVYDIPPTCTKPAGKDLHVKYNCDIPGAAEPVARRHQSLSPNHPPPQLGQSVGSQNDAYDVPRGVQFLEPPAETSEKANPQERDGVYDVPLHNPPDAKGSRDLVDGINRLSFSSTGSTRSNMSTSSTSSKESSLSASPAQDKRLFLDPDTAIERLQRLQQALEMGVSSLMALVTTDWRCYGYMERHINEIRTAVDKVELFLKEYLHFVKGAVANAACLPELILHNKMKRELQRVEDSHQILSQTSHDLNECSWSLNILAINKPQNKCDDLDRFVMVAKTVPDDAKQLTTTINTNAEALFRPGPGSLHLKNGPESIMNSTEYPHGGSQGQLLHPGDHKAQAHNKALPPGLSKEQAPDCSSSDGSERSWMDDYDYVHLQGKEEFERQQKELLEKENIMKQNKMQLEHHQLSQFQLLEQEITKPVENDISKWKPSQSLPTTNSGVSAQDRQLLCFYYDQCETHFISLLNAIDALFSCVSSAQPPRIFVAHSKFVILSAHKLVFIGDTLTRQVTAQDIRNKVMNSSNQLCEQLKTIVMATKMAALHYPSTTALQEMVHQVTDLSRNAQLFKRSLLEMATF

[1] = biological target: T1, Polo box domain of mouse Plk1 (residues 367-603), for crystallization (mouse, UniProt Q07832 367-603); assay: crystal structure; Plk1 PBD (10 mg/ml) with pThr-804 peptide added in a 1:3 molar ratio, incubated overnight; sitting-drop vapor diffusion at 295 K, 0.1 M sodium citrate pH 5.5, 15% PEG 6000; 2.9 Å; settings: both partners purified
T1 construct: Polo box domain of mouse Plk1, Swiss Prot entry Q07832, residues 367-603; residues 371-593 are in the final model; TEV site ENLYFQS between the tag and the PBD, cleaved between Q and S: a serine is left before the PBD; also called Plk1 PBD; Plk1-PBD; source: E. coli BL21 (DE3) CodonPlus RIL, purified (Ni-NTA, TEV digestion, Superdex-75 gel filtration); not shown: His6, N-terminal, cleaved
T1 sequence (Q07832 367-603): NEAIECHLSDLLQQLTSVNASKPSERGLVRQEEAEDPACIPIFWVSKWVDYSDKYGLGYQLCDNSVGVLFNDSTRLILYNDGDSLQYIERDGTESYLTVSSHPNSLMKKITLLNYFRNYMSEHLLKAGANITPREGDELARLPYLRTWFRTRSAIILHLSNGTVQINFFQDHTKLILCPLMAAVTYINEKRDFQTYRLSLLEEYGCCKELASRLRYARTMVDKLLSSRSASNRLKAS

Q: Which results are given for “GST-Plk1 PBD WT (Polo box domain of Plk1) H538A; K540M”?
A: ratio to parent (HEF1, endogenous; asynchronously growing (Async.)): 0.1; ratio to parent (HEF1, endogenous; nocodazole (Noc)-treated (M phase)): 0.2; ratio to parent (HEF1, endogenous; thymidine (Thy)-treated (S phase)): 0.1

B1: HEF1 pThr-804 peptide (799-LHYPSpTTALQE-809), free, for crystallization (peptide)
peptide: LHYPS[pT]TALQE
notes: HEF1 (NEDD9), human, aa 799-809; 800-HYPSpTTAL-807 is in the final model; source: synthetic peptide
Q: Does B1 bind [1]?
A: Result: binds
